According to the nanobody polyreactivity screen of Harvey et al. (2022):

Experiment: yeast display, Sf9 membrane polyspecificity reagent, FACS + sequencing; frameworks hold sequencing errors
Outline: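 Nanobodies came from a synthetic yeast display library in Saccharomyces cerevisiae BJ5465, induced with galactose for 36–48 hours and stained for 1 hour at 4 °C with 10% biotinylated, detergent-solubilized Sf9 membrane reagent. Cells were enriched on streptavidin microbeads and then FACS-sorted, with low and high (top ~1%) gates set on anti-HA fluorescence for expression and streptavidin fluorescence for reagent binding. Each polyreactivity label reflects the gate a clone came from. Genes were amplified by colony PCR, sequenced by MiSeq 2 × 250 and filtered by CDR length.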

Sequence: QVQLVESGGGLVQAGGSLRLSCAASGLIFISYAMGWYRQAPGKERELVAAITSTVGGTYYADSVKGRFTISRDNAKNTVYLQMNSLQPEDTAVYYCAKEVWTWGPYYYWGQGTQVTVSS
- polyreactivity (PSR sort gate): low polyreactivity

Sequence: QVQLVESGGGLVQAGGSLRLSCAASGLIFKYNVMGWYRQAPGKERELVAAITWGGTRTYYADSVKGRFTISRDNAKNTVYLQMNSLKPEDTAVYYCAVRSARIERNYWGQGTQVTVSS
- polyreactivity (PSR sort gate): low polyreactivity

Sequence: QVQLVESGGGLVQAGGSLRLSCAASGLIFLQYGLGWYRQAPGKERALVAAITTRGGRTYYADSVKGRFTISRDNANNTVYLQMNSLKPEDTAVYYCAADSEQDNLRYYRWVWYYYWGQGTQVTVSS
- polyreactivity (PSR sort gate): low polyreactivity

Sequence: QVQLVESGGGLVQAGGSLRLSCAASGLIFLQYVMGWYRQAPGKEREFVATITDDGDTTYYADSVKGRFTISRDNAKNTVYLQMNSLKPEDTAVYYCAARYVPVYYWDYPYDYWGQGTQVTVSS
- polyreactivity (PSR sort gate): low polyreactivity

Sequence: QVQLVESGGGLVQAGGSLRLSCAASGLIFNKYTMGWYRQAPGTERELVAAISKSGGSTYYADSVKGRFTISRDNAKNTVYLQMNSLKPEDTAVYYCNRVTHYIRFDYWGQGTQVTGSS
- polyreactivity (PSR sort gate): low polyreactivity

Sequence: QVQLVESGGGLVQAGGSLRLSCAASGLIFPCYDMGWYRQAPGKERELVAAISDSGANTYYADSVKGRFTISRDNAKNTVYFQMNSLKPEDTAVYYCAAESSWWYGTSFGRFDYWGQGTQVTVSS
- polyreactivity (PSR sort gate): low polyreactivity

Sequence: QVQLVESGGGLVQAGGSLRLSCAASGLIFPDYDMGWYIQAPGKERELVAAISIGGVSTYYADSVKGRFTISRDNAKNTVYLQMNSLKPEDTAVYYCAAYYSYVYYVGDSDDYWGQGTQVTVSS
- polyreactivity (PSR sort gate): low polyreactivity

Sequence: QVQLVESGGGLVQAGGSLRLSCAASGLIFPIYTMGWYRQAPGKERELVAAISSRGGSTYYADSVKGRFTISRDNAKNTVYLQMNSLKPEDTAVYYFGSYDYSGQGTQVTVSS
- polyreactivity (PSR sort gate): high polyreactivity

Sequence: QVQLVESGGGLVQAGGSLRLSCAASGLIFPQYAMGWYRQAPGKERELVAAISLSGTSTNYADSVKGRFTISRDNAKNTVYLQMNSLKPEDTAVYYCLADQRITQSVELEYDSWGQGSQVTVSS
- polyreactivity (PSR sort gate): low polyreactivity

Sequence: QVQLVESGGGLVQAGGSLRLSCAASGLIFPRYAMGWYRQAPGKERELVAAITRGGSTYYADSVKGRFTISRDNAKNTVYLQMNSLKPEDTAVYYCNAELPVHWSWYDYWGQGTQVTVSS
- polyreactivity (PSR sort gate): low polyreactivity

Sequence: QVQLVESGGGLVQAGGSLRLSCAASGLIFPRYAMGWYRQAPGKERELVAAITSRAGSTYYADSVKGRFTISRDNAKNTVYLQMNSLKPEDTAVYYCAAVSDGWDGDMYYWGQGTQVTVSS
- polyreactivity (PSR sort gate): low polyreactivity

Sequence: QVQLVESGGGLVQAGGSLRLSCAASGLIFPRYAMGWYRQAPGKERELVAAITSRAGSTYYADSVKGRFTISRDNAKNTVYLQMNSLKPEDTAVYYCAAVSDGWDGDMYYWGQVTQVTVSS
- polyreactivity (PSR sort gate): low polyreactivity

Sequence: QVQLVESGGGLVQAGGSLRLSCAASGLIFPSYAMGWYRQAPGKERELVAAITFSGSDTNYADSVKGRFTISRDNAKNTVYLQMNSLKPEDTAVYYCAAAYFDFWGWLHDYWGQGTQVTVSS
- polyreactivity (PSR sort gate): low polyreactivity

Sequence: QVQLVESGGGLVQAGGSLRLSCAASGLIFPVYDMAWYRQAPGKERELVAAITRSGDSTYYADSVKGRFTISRDNAKNTVYLQMNSLKPEDSGVYYCAAQPGTASYAGDGDSWGKGTQVTVSS
- polyreactivity (PSR sort gate): low polyreactivity

Sequence: QVQLVESGGGLVQAGGSLRLSCAASGLIFPYNAMGWYRQAPGKERELVAAIDSGVTTYYADSVKGRFTISRDNAKNTVYLQMNSLKPEDTAVYFCAADGLPGPEGDSWGQGTQVSVSS
- polyreactivity (PSR sort gate): low polyreactivity

Sequence: QVQLVESGGGLVQAGGSLRLSCAASGLIFPYYVKVWYRQAPGKERELVAAISWNGSSTYYADSVKGRFTISRDNAKNTVYLQMNSLKPEDTAVYYCAASYGYFEDYGYWGQGTQVTVSS
- polyreactivity (PSR sort gate): low polyreactivity

Sequence: QVQLVESGGGLVQAGGSLRLSCAASGLIFQEYAMGWYRQAPGKERELVAAITSGDSTNYADSVKGRFTISRDNAKNTVYLQMNSLKPEDTAVYYCNVDEAYYFVGEDNYDYWGQGTQVTVSS
- polyreactivity (PSR sort gate): low polyreactivity

Sequence: QVQLVESGGGLVQAGGSLRLSCAASGLIFQVYDMGWYRQAPGKERELVAAISSGSNTNYADSVKGRFTISRDNAKNTVYLQMNSLKPEDTAVYYCAAGLYLQGPFDYWGQGTQVTVSS
- polyreactivity (PSR sort gate): low polyreactivity

Sequence: QVQLVESGGGLVQAGGSLRLSCAASGLIFQVYDMGWYRQAPGKERELVAAISSGSNTNYADSVKGRFTISRDNAKNTVYLQMNSRKPEDTAVYYCAASWGYGALTPDMGYWGQGTQVTVSS
- polyreactivity (PSR sort gate): low polyreactivity

Sequence: QVQLVESGGGLVQAGGSLRLSCAASGLIFRGNAMGWYRQAPGKERELVAGITRGGSTYYADSVKGRFTISRDNAKNTVYLQMNSLKPEDTAVYYCAAAFRDGFTRRYGYWGQGTQVTVSS
- polyreactivity (PSR sort gate): high polyreactivity

Sequence: QVQLVESGGGLVQAGGSLRLSCAASGLIFRGYAMGWYRQAPGKERELVAAISTTGGSTFYADSVKGRFTISRDNAKNTVYLQMNSLKREDTAVYYCNADWAPTGFSGGYPYDYWGQGTQVTVSS
- polyreactivity (PSR sort gate): high polyreactivity

Sequence: QVQLVESGGGLVQAGGSLRLSCAASGLIFRGYAMGWYRQAPGKERELVAVISSSGGITRYADSVKGRFTISRDNAKNTVYLQMNSLKPEDTAVSYCATDRAERTGYTRYVKTYNYWGQGTQVTVSS
- polyreactivity (PSR sort gate): low polyreactivity

Sequence: QVQLVESGGGLVQAGGSLRLSCAASGLIFRGYTMGWYRQAPGKEREFVAAITRRGTSTYYADSVKGRFTISRDNAKNTVYLQMNSLKPEDTAVYYCAARSVSGPRGYPYDYWGQGTQVTVSS
- polyreactivity (PSR sort gate): high polyreactivity

Sequence: QVQLVESGGGLVQAGGSLRLSCAASGLIFRPYAMGWYRQAPGKERELVAALTSGGSTDYADSVKGRFTISRDNAKNTVYLQMNSLKPEDTAVYYCNADIYPHDGYPWQGDYDYWGQGTQVTVSS
- polyreactivity (PSR sort gate): low polyreactivity

Sequence: QVQLVESGGGLVQAGGSLRLSCAASGLIFRRYAMGWYRQAPGKERELVAAISRTGGTTYYADSVKGRFTISRDTAKNTVYLQMNSLKPEDTAVYYCAAAGQGPDYDYWGQGTQVSVSS
- polyreactivity (PSR sort gate): high polyreactivity

Sequence: QVQLVESGGGLVQAGGSLRLSCAASGLIFRRYVMGWYRQAPGKERELVAAITSRGTRTYYADSVKGRFTISRDNAKNTVYLQMNSLKPEDTAVYYCAADGGISAGANSGYDYWGQGTQVTVSS
- polyreactivity (PSR sort gate): high polyreactivity

Sequence: QVQLVESGGGLVQAGGSLRLSCAASGLIFRVYAMGWYRQAPGKERELVAAITWSDGSTYYADSVKGRFTISRDNAKNTVYLQMNSLKPEDTAVYYCAAEFWYDWDYDYYYWGQGTQVTVSS
- polyreactivity (PSR sort gate): high polyreactivity

Sequence: QVQLVESGGGLVQAGGSLRLSCAASGLIFRYNAMGWYRQAPGKERELVAAISRSGGTTYYADSVKGRFTISRDNAKNTVYLQMNSLKPEDTAVYYCATRISQSYYNYGYWGQGTQVTVSS
- polyreactivity (PSR sort gate): high polyreactivity

Sequence: QVQLVESGGGLVQAGGSLRLSCAASGLIFRYNAMGWYRQAPGKERELVASITSDGSTNYADSVKGRFTISRDNAKNTVYLQMNSLKPEDTAVYYCAADGYTYCYYQLIPDYDYWGQGTQVTVSS
- polyreactivity (PSR sort gate): low polyreactivity

Sequence: QVQLVESGGGLVQAGGSLRLSCAASGLIFRYYAKGWYRQGPGNEMELVAVISRRGDSTYYADSVKVRFTISRDNAKNTVYLQMISLKPEDTAVFYCAAEYFKRYKSYEYWGQGTQVTVSS
- polyreactivity (PSR sort gate): high polyreactivity

Sequence: QVQLVESGGGLVQAGGSLRLSCAASGLIFRYYAMGWYRQAPGKERELVASISGSGGSTYYADSVKGRFTISRDNAKNTVYLQMNSLKPEDTAVYYCAATLAVYRRGPRYNYWGQGTQVTVSS
- polyreactivity (PSR sort gate): high polyreactivity

Sequence: QVQLVESGGGLVQAGGSLRLSCAASGLIFRYYVMGWYRQAPGKERDFVASISYSGGRTYYADSVKGRFTISRDYAKNTVYLQMNRLKPEDTAVYYCAGGYYYHRYSYPGDYWGQGTQVTVSS
- polyreactivity (PSR sort gate): high polyreactivity

Sequence: QVQLVESGGGLVQAGGSLRLSCAASGLIFSCNAMGWYRQAPGKERELVASISYSGGRTYYADSVKGRFTISRDNAKNTVYLQMNSLKPEDTAVYYCAADTNATTDPEMDYWGQGTQVTVSS
- polyreactivity (PSR sort gate): low polyreactivity

Sequence: QVQLVESGGGLVQAGGSLRLSCAASGLIFSGYAMGWYRQAPGKDRELVAALTRRGSRTYYADSVKGRFTISRDNAKNTVYLQMNSLKPEDTAVYYCAADRFQGRDDYWGQGTQVTVSS
- polyreactivity (PSR sort gate): high polyreactivity

Sequence: QVQLVESGGGLVQAGGSLRLSCAASGLIFSQNAMGWYRQAPGKERELVARITLSGTSTYYADSVKGRFTISRDNAKNTVYLQMISLKPEDTAVYYCNTRSYSYYVPYRYDYWGQGTQVTVSS
- polyreactivity (PSR sort gate): high polyreactivity

Sequence: QVQLVESGGGLVQAGGSLRLSCAASGLIFSSYAMGWYRQAPGQERELVAAITGSGGRTYYADSVKGRFTISRDNAKNTVYLQMNSLKPEDTAVYYWNRRSRRQGGYWGQGTHVTVSS
- polyreactivity (PSR sort gate): high polyreactivity

Sequence: QVQLVESGGGLVQAGGSLRLSCAASGLIFSWYAMGWYRQAPGKERELVAAITGSGGRTYYADSVKGRFTISRDNAKNTVYLQMNSLKPEDTAVYYCAALYTARYDYWGQGTQVTVSS
- polyreactivity (PSR sort gate): high polyreactivity

Sequence: QVQLVESGGGLVQAGGSLRLSCAASGLIFSYYAMGWYIQAPGKERVLVAAISGVGSTNYADSVKGRFTISRDNEKNTVYLQMNSLKPEDTAVYYCAARFVLRRDYGYWGQGTQVTVSS
- polyreactivity (PSR sort gate): high polyreactivity

Sequence: QVQLVESGGGLVQAGGSLRLSCAASGLIFSYYAMGWYRQAPGKERELVAAISRGGSTNYADSVKGRFTISRDNAKNTVNLQMNSLKPEDTAVYYFAAGRFAYHDDYWGQGTQVTVSS
- polyreactivity (PSR sort gate): high polyreactivity

Sequence: QVQLVESGGGLVQAGGSLRLSCAASGLIFSYYAMGWYRQAPGKERELVAGITRSGASTYADSVKGRFTISRDNAKNTVYLQMNSLKPEDTAVYYCAADWHYLGWFWQYSKYDYWGQGTQVTVSS
- polyreactivity (PSR sort gate): high polyreactivity

Sequence: QVQLVESGGGLVQAGGSLRLSCAASGLIFTAYAMGWYRPAPGKERELVAAITGSGGRTYYADSVKGRFTISRDNALNSVYLQMNSLKAEDTAVYYCAADFPARGSSTYDYWGQGTQVTVSS
- polyreactivity (PSR sort gate): high polyreactivity

Sequence: QVQLVESGGGLVQAGGSLRLSCAASGLIFTNYAMGWYRQAPGKERELVAGISTRGTSTYYADSVKGRFTISRDNAKNTVYLQMNSLKPEDTAVYYCAAVHRVVRAYDYWGQGTQVTVSS
- polyreactivity (PSR sort gate): high polyreactivity

Sequence: QVQLVESGGGLVQAGGSLRLSCAASGLIFTSYAMGWYRQAPGKERELVAAISRGVRTYYADSVKGRFTISRDNAKNTVYLQMNSLKPEDTAVYYCAAAKPPPGKYDYWGQGTQVTVSS
- polyreactivity (PSR sort gate): high polyreactivity
